Source: article PMC2174553

B1: Bub3p fusion to the transcriptional activation domain (natural protein)
chain: MQIVQIEQAPKDYISDIKIIPSKSLLLITSWDGSLTVYKFDIQAKNVDLLQSLRYKHPLLCCNFIDNTDLQIYVGTVQGEILKVDLIGSPSFQALTNNEANLGICRICKYGDDKLIAASWDGLIEVIDPRNYGDGVIAVKNLNSNNTKVKNKIFTMDTNSSRLIVGMNNSQVQWFRLPLCEDDNGTIEESGLKYQIRDVALLPKEQEGYACSSIDGRVAVEFFDDQGDDYNSSKRFAFRCHRLNLKDTNLAYPVNSIEFSPRHKFLYTAGSDGIISCWNLQTRKKIKNFAKFNEDSVVKIACSDNILCLATSDDTFKTNAAIDQTIELNASSIYIIFDYEN
B2: Cdc20p fusion to the transcriptional activation domain (natural protein)
chain: MPESSRDKGNAAISGNRSVLSIASPTKLNILSSDWSRNQGKVSKNSLKRSSSLNIRNSKRPSLQASANSIYSRPKITIGAPPLIRRDSSFFKDEFDAKKDKATFSAYSSRSYPTIGSESVVSQTSLSQPTTSREVDEQFTVAADRYIPILQGASQNKVDPETLHEALPPPNASPISHLRAQTKIVFKQNVAEACGLDMNKRILQYMPEPPKCSSLRQKSYIMKKRTHYSYQQEQKIPDLIKLRKINTNPERILDAPGFQDDFYLNLLSWSKKNVLAIALDTALYLWNATTGDVSLLTDFENTTICSVTWSDDDCHISIGKEDGNTEIWDVETMSLIRTMRSGLGVRIGSLSWLDTLIATGSRSGEIQINDVRIKQHIVSTWAEHTGEVCGLSYKSDGLQLASGGNDNTVMIWDTRTSLPQFSKKTHTAAVKALSWCPYSPNILASGGGQTDKHIHFWNSITGARVGSINTGSQVSSLHWGQSHTSTNGGMMNKEIVATGGNPENAISVYNYETKFKVAEVVHAHEARICCSQLSPDGTTLATVGGDENLKFYKIFDPRCTGRSREDGLMDGMLGLIGKEGCRTNDKENRSKNSSEIHTRRPSSTSQYLIR

Biological target: Bub1p fusion to the Gal4 DNA binding domain (budding yeast) (UniProt P41695)
Test: two-hybrid

UniProt P41695, sequence (P41695 whole entry, the tested form may be a part): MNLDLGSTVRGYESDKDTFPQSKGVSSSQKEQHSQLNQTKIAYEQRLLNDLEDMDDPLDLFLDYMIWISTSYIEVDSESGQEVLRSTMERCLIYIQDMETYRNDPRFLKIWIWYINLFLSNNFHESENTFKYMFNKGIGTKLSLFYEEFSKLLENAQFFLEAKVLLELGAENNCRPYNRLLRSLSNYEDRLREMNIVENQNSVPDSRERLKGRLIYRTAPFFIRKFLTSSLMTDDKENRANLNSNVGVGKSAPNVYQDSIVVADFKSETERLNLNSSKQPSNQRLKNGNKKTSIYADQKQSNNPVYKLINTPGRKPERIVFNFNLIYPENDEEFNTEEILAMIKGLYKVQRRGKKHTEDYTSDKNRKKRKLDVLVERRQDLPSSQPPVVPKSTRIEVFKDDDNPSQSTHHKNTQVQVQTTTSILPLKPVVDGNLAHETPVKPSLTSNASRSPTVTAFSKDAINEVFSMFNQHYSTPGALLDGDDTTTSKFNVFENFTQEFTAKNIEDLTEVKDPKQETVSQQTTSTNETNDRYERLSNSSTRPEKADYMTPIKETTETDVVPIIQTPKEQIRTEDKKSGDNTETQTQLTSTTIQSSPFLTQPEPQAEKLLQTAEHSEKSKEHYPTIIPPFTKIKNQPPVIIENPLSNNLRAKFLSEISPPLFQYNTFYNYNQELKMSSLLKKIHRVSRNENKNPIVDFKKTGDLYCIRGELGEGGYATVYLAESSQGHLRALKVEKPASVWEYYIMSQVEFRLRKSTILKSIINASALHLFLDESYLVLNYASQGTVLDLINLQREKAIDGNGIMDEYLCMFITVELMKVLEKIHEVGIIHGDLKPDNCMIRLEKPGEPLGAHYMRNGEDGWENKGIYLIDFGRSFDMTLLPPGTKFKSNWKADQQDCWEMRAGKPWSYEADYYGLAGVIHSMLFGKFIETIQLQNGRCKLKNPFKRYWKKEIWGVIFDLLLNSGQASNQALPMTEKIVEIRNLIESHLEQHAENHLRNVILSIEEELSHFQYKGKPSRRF

Binder	β-galactosidase activity (two-hybrid) [Miller units]
B1	55
B2	100
